To fix the notation:
B1: Methylglyoxal reductase (YghZ) (enzyme, Escherichia coli, UniProt Q46851 1-346, looked up)
chain: MVWLANPERYGQMQYRYCGKSGLRLPALSLGLWHNFGHVNALESQRAILRKAFDLGITHFDLANNYGPPPGSAEENFGRLLREDFAAYRDELIISTKAGYDMWPGPYGSGGSRKYLLASLDQSLKRMGLEYVDIFYSHRVDENTPMEETASALAHAVQSGKALYVGISSYSPERTQKMVELLREWKIPLLIHQPSYNLLNRWVDKSGLLDTLQNNGVGCIAFTPLAQGLLTGKYLNGIPQDSRMHREGNKVRGLTPKMLTEANLNSLRLLNEMAQQRGQSMAQMALSWLLKDDRVTSVLIGASRAEQLEENVQALNNLTFSTKELAQIDQHIADGELNLWQASSDK
notes: methylglyoxal reductase YghZ, Escherichia coli, native source protein; identified from the electron density after molecular replacement; source: purified from E. coli DH5α cells (heparin sepharose, phenyl sepharose, MonoQ)
B2: Ariginosuccinate lyase (enzyme, Escherichia coli, UniProt P11447 1-457, looked up)
chain: MALWGGRFTQAADQRFKQFNDSLRFDYRLAEQDIVGSVAWSKALVTVGVLTAEEQAQLEEALNVLLEDVRARPQQILESDAEDIHSWVEGKLIDKVGQLGKKLHTGRSRNDQVATDLKLWCKDTVSELLTANRQLQSALVETAQNNQDAVMPGYTHLQRAQPVTFAHWCLAYVEMLARDESRLQDALKRLDVSPLGCGALAGTAYEIDREQLAGWLGFASATRNSLDSVSDRDHVLELLSAAAIGMVHLSRFAEDLIFFNTGEAGFVELSDRVTSGSSLMPQKKNPDALELIRGKCGRVQGALTGMMMTLKGLPLAYNKDMQEDKEGLFDALDTWLDCLHMAALVLDGIQVKRPRCQEAAQQGYANATELADYLVAKGVPFREAHHIVGEAVVEAIRQGKPLEDLPLSELQKFSQVIDEDVYPILSLQSCLDKRAAKGGVSPQQVAQAIAFAQARLG
notes: argininosuccinate lyase (printed: Ariginosuccinate lyase), Escherichia coli, native source protein; identified with PDB 1TJ7; the PDB entry is the previously deposited structure that identified the protein; the crystallised protein is the native one; also called Arginosuccinate lyase; source: purified from E. coli DH5α cells (whole-proteome fractionation)
B3: Adenylosuccinate synthetase (enzyme, Escherichia coli, UniProt P0A7D4 1-432, looked up)
chain: MGNNVVVLGTQWGDEGKGKIVDLLTERAKYVVRYQGGHNAGHTLVINGEKTVLHLIPSGILRENVTSIIGNGVVLSPAALMKEMKELEDRGIPVRERLLLSEACPLILDYHVALDNAREKARGAKAIGTTGRGIGPAYEDKVARRGLRVGDLFDKETFAEKLKEVMEYHNFQLVNYYKAEAVDYQKVLDDTMAVADILTSMVVDVSDLLDQARQRGDFVMFEGAQGTLLDIDHGTYPYVTSSNTTAGGVATGSGLGPRYVDYVLGILKAYSTRVGAGPFPTELFDETGEFLCKQGNEFGATTGRRRRTGWLDTVAVRRAVQLNSLSGFCLTKLDVLDGLKEVKLCVAYRMPDGREVTTTPLAADDWKGVEPIYETMPGWSESTFGVKDRSGLPQAALNYIKRIEELTGVPIDIISTGPDRTETMILRDPFDA
notes: adenylosuccinate synthetase, Escherichia coli, native source protein; identified with PDB 1CG1; the PDB entry is the previously deposited structure that identified the protein; the crystallised protein is the native one; source: purified from E. coli DH5α cells (whole-proteome fractionation)
B4: Dihydrodipicolinate synthase (enzyme, Escherichia coli, UniProt P0A6L2 1-292, looked up)
chain: MFTGSIVAIVTPMDEKGNVCRASLKKLIDYHVASGTSAIVSVGTTGESATLNHDEHADVVMMTLDLADGRIPVIAGTGANATAEAISLTQRFNDSGIVGCLTVTPYYNRPSQEGLYQHFKAIAEHTDLPQILYNVPSRTGCDLLPETVGRLAKVKNIIGIKEATGNLTRVNQIKELVSDDFVLLSGDDASALDFMQLGGHGVISVTANVAARDMAQMCKLAAEGHFAEARVINQRLMPLHNKLFVEPNPIPVKWACKELGLVATDTLRLPMTPITDSGRETVRAALKHAGLL
notes: dihydrodipicolinate synthase, Escherichia coli, native source protein; identified with PDB 1DHP; the PDB entry is the previously deposited structure that identified the protein; the crystallised protein is the native one; source: purified from E. coli DH5α cells (whole-proteome fractionation)
B5: Cystathione gamma-synthase (enzyme, Escherichia coli, UniProt P00935 1-386, looked up)
chain: MTRKQATIAVRSGLNDDEQYGCVVPPIHLSSTYNFTGFNEPRAHDYSRRGNPTRDVVQRALAELEGGAGAVLTNTGMSAIHLVTTVFLKPGDLLVAPHDCYGGSYRLFDSLAKRGCYRVLFVDQGDEQALRAALAEKPKLVLVESPSNPLLRVVDIAKICHLAREVGAVSVVDNTFLSPALQNPLALGADLVLHSCTKYLNGHSDVVAGVVIAKDPDVVTELAWWANNIGVTGGAFDSYLLLRGLRTLVPRMELAQRNAQAIVKYLQTQPLVKKLYHPSLPENQGHEIAARQQKGFGAMLSFELDGDEQTLRRFLGGLSLFTLAESLGGVESLISHAATMTHAGMAPEARAAAGISETLLRISTGIEDGEDLIADLENGFRAANKG
notes: cystathionine gamma-synthase (printed: Cystathione gamma-synthase), Escherichia coli, native source protein; identified with PDB 1CS1; the PDB entry is the previously deposited structure that identified the protein; the crystallised protein is the native one; source: purified from E. coli DH5α cells (whole-proteome fractionation)
B6: MoaB (molybdopterin biosynthesis protein B) (natural protein, Escherichia coli, UniProt P0AEZ9 1-170, looked up)
chain: MSQVSTEFIPTRIAILTVSNRRGEEDDTSGHYLRDSAQEAGHHVVDKAIVKENRYAIRAQVSAWIASDDVQVVLITGGTGLTEGDQAPEALLPLFDREVEGFGEVFRMLSFEEIGTSTLQSRAVAGVANKTLIFAMPGSTKACRTAWENIIAPQLDARTRPCNFHPHLKK
notes: MoaB, molybdopterin biosynthesis protein B, Escherichia coli, native source protein; identified with PDB 1R2K; the PDB entry is the previously deposited structure that identified the protein; the crystallised protein is the native one; source: purified from E. coli DH5α cells (whole-proteome fractionation)
B7: Catalase HPII (enzyme, Escherichia coli, UniProt P21179 1-753, looked up)
chain: MSQHNEKNPHQHQSPLHDSSEAKPGMDSLAPEDGSHRPAAEPTPPGAQPTAPGSLKAPDTRNEKLNSLEDVRKGSENYALTTNQGVRIADDQNSLRAGSRGPTLLEDFILREKITHFDHERIPERIVHARGSAAHGYFQPYKSLSDITKADFLSDPNKITPVFVRFSTVQGGAGSADTVRDIRGFATKFYTEEGIFDLVGNNTPIFFIQDAHKFPDFVHAVKPEPHWAIPQGQSAHDTFWDYVSLQPETLHNVMWAMSDRGIPRSYRTMEGFGIHTFRLINAEGKATFVRFHWKPLAGKASLVWDEAQKLTGRDPDFHRRELWEAIEAGDFPEYELGFQLIPEEDEFKFDFDLLDPTKLIPEELVPVQRVGKMVLNRNPDNFFAENEQAAFHPGHIVPGLDFTNDPLLQGRLFSYTDTQISRLGGPNFHEIPINRPTCPYHNFQRDGMHRMGIDTNPANYEPNSINDNWPRETPPGPKRGGFESYQERVEGNKVRERSPSFGEYYSHPRLFWLSQTPFEQRHIVDGFSFELSKVVRPYIRERVVDQLAHIDLTLAQAVAKNLGIELTDDQLNITPPPDVNGLKKDPSLSLYAIPDGDVKGRVVAILLNDEVRSADLLAILKALKAKGVHAKLLYSRMGEVTADDGTVLPIAATFAGAPSLTVDAVIVPCGNIADIADNGDANYYLMEAYKHLKPIALAGDARKFKATIKIADQGEEGIVEADSADGSFMDELLTLMAAHRVWSRIPKIDKIPA
notes: catalase HPII, Escherichia coli, native source protein; identified with PDB 1GG9; the PDB entry is the previously deposited structure that identified the protein; the crystallised protein is the native one; source: purified from E. coli DH5α cells (whole-proteome fractionation)

One data set deals with the molecule itself. The data set can be described thus: crystal structure; novel structures of native source E. coli proteins, solved by molecular replacement and refined; oligomer seen in the crystal.
For B1, the “stoichiometry N” value worked out at 4.

The next data set deals with the molecule itself. The data set can be described thus: crystal structure; native source E. coli proteins already in the PDB, identified and solved by brute-force molecular replacement, not refined except to confirm the solution; oligomer seen in the crystal.
With B2, the binding result is “binds”. The same measure, in the same setting: for B3 the value was “binds”; for B4, “binds”. Same read-out and setting: next, B5: “binds”; B6: “binds”; B7: “binds”.

The record behind these values is publication PMC3290569, “Macro-to-Micro Structural Proteomics: Native Source Proteins for High-Throughput Crystallization” (PLoS ONE, 2012).
